Kd data for 1 substance are collected here from PMC8065039.

This test has as its target CA521^FALA (human IgG4 monoclonal antibody with the F234A/L235A mutation) (human (from human antibody transgenic mice)). Nature of the test: BLI.

Sequence of CA521^FALA (human IgG4 monoclonal antibody with the F234A/L235A mutation) (human (from human antibody transgenic mice)) (heavy, as listed by the source, chain 1 of 2): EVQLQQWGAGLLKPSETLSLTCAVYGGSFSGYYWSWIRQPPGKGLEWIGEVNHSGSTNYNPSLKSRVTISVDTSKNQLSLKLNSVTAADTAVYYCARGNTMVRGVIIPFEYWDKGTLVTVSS
Sequence of CA521^FALA (human IgG4 monoclonal antibody with the F234A/L235A mutation) (human (from human antibody transgenic mice)) (light, as listed by the source, chain 2 of 2): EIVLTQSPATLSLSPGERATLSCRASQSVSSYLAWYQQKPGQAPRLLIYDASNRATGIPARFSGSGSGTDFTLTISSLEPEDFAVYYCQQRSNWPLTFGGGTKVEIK

“SARS-CoV-2 RBD protein (40592-V05H, Sino Biological) (from UniProt P0DTC2) (domain or fragment)”: the Kd is 0.698 nM.

A word on the Kd: it is the concentration at which binding is half-saturated.
